The source of these data is US20170283484A1 (UNITED KINGDOM RESEARCH AND INNOVATION, published 2017).

Where two headings read alike, the source gives them in different places.

The target in assay [1] is AP33 antibody (wild type mouse monoclonal).
For assay [2], the target named is T1, AP33 antibody (wild type mouse monoclonal).
T1 construct: also called WT AP33; Ab1
In words: SPR, B2.1A scFv amine-coupled to CM5 chip, AP33 injected, single-cycle kinetics. For orientation: Surface plasmon resonance follows binding to a sensor surface in real time, without labels.

The target of assay [3] is T1, AP33 antibody (wild type mouse …). In words: SPR, B2.1A scFv amine-coupled to CM4 chip, AP33 injected, single-cycle kinetics.
The target is the same in assay [4]. In words: Ab2 binding screen.
The next assay concerns the target T2, AP33 light-chain alone (Mus musculus (Mouse), UniProt P01661 21-131).
T2 construct: also called AP33 LC; LC
In words: Ab2 binding screen.

Assay [5] deals with HCV E2 envelope glycoprotein (hepatitis C virus, UniProt P27958 384-746). In words: ELISA of E2 on AP33 alanine mutants. Background: ELISA stands for enzyme-linked immunosorbent assay.
Sequence of HCV E2 envelope glycoprotein (P27958 384-746 limits assumed): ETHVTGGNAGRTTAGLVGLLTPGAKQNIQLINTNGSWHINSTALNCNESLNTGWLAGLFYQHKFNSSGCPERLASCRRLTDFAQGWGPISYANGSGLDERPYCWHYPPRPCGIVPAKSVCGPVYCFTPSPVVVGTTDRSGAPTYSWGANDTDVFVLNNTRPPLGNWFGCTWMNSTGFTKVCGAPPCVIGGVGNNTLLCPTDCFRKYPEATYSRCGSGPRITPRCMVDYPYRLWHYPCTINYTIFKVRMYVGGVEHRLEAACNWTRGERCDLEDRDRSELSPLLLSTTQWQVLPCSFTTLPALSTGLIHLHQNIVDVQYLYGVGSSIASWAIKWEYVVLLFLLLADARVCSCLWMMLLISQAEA

B1: B2.1A scFv (scFv)
scFv: DANSQVQLQESGTELVKPGASVKLSCKASGYTFTNYWMHWVKQRPGQGLEWIGEINPSDGHTNYNEKFKSKATLTVDKSSSTAYMQLSSLTSEDSAVYYCARPWAFGNYGAWFAYWGQGTLVTVSAGGSGGSGGGGSGGGGSGGGASDIVMTQSPKFMSTSVGDRVSITCKASQNVRTAVAWYQQKPGQSPKALIYLASSRHTGVPDRFTGSGSGTDFTLTISNVQSEDLADYFCLQHWNYPYTFGGGTKLEIKSRHHHHHH
notes: also called single-chain variable fragment (scFv) of B2.1A; Ab2
On to B1, for which the results for the Kd in assay [1], in assay [2] and in assay [3] were 8 nM, 28.6 nM and 20.7 nM, respectively. In addition, the values for the dissociation rate constant (koff) in assay [1], in assay [2] and in assay [3] were 0.00039 s⁻¹, 0.000321 s⁻¹ and 0.000243 s⁻¹, respectively. The association rate constant (kon) in assay [1] was 48700 M⁻¹ s⁻¹; in assay [2], 11200 M⁻¹ s⁻¹; in assay [3], 11800 M⁻¹ s⁻¹.

B2: B2.1A antibody (antibody, V domains shown)
VH: QVQLQESGTELVKPGASVKLSCKASGYTFTNYWMHWVKQRPGQGLEWIGEINPSDGHTNYNEKFKSKATLTVDKSSSTAYMQLSSLTSEDSAVYYCARPWAFGNYGAWFAYWGQGTLVTVSA
VL: DIVMTQSPKFMSTSVGDRVSITCKASQNVRTAVAWYQQKPGQSPKALIYLASSRHTGVPDRFTGSGSGTDFTLTISNVQSEDLADYFCLQHWNYPYTFGGGTKLEIKR
notes: also called anti-Id B2.1A; Ab2
For the molecule B2, the binding result in assay [4] is on record as “binds”; with AP33 light-chain alone, “no binding”.

B3: AP33 mutant YH50A (antibody, V domains shown)
VH: EVQLQESGPSLVKPSQTLSLTCSVTGDSITSGYWNWIRKFPGNKLEYMGAISYSGSTYYNLSLRSRISITRDTSKNQYYLQLNSVTTEDTATYYCALITTTTYAMDYWGQGTSVTVS
VL: NIVLTQSPVSLAVSLGQRATISCRASESVDGYGNSFLHWFQQKPGQPPKLLIYLASNLNSGVPARFSGSGSRTDFTLTIDPVEADDAATYYCQQNNVDPWTFGGGTKLEIK
On to B3, for which the “reduction of binding relative to WT AP33” value in assay [5] is 90%.

B4: AP33 mutant YH100A (antibody, V domains shown)
VH: EVQLQESGPSLVKPSQTLSLTCSVTGDSITSGYWNWIRKFPGNKLEYMGYISYSGSTYYNLSLRSRISITRDTSKNQYYLQLNSVTTEDTATYYCALITTTTAAMDYWGQGTSVTVS
VL: NIVLTQSPVSLAVSLGQRATISCRASESVDGYGNSFLHWFQQKPGQPPKLLIYLASNLNSGVPARFSGSGSRTDFTLTIDPVEADDAATYYCQQNNVDPWTFGGGTKLEIK
On to B4, for which, in assay [5], the “reduction of binding relative to WT AP33” value is 90%.

One may read the Kd as the equilibrium constant for the complex coming apart. Read a low Kd as tighter binding. The koff is a measure of how fast the partners let go of each other. The kon is the second-order rate constant of association.
